Measured values published in patent US20260015420A1 (CENTESSA PHARMACEUTICALS UK, published 2026).

T1: cynomolgus monkey CD47-Fc (cynomolgus monkey, UniProt Q08722 19-139 (human entry), limits assumed)
T1 construct: also called cCD47; cyno CD47-Fc; not shown: Fc part
T1 chain: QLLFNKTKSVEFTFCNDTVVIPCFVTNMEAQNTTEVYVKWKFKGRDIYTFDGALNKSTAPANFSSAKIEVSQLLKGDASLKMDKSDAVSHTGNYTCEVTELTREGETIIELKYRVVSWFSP

T2: cynomolgus monkey CD47 on cyno CD47-transfected CHO-K1 cells (cynomolgus monkey, UniProt Q08722 19-323 (human entry))
T2 construct: CHO-K1 cells stably transfected with cyno CD47 full-length cDNA; also called cyno CD47+ cells; cyno CD47+CHO-K1
T2 chain: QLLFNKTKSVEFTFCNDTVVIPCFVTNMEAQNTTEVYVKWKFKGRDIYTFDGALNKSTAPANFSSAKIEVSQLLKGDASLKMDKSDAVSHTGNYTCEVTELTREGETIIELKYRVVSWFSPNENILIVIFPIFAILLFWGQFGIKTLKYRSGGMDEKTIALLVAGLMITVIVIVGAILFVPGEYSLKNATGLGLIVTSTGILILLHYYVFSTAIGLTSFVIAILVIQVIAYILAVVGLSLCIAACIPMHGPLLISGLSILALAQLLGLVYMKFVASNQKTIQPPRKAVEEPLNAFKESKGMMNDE


How the values were obtained:
[1] = biological target: T1, cynomolgus monkey CD47-Fc; experiment: direct ELISA, coated cyno CD47-Fc, OD450
Method: (§1) To coat ELISA plates sold under the name Greiner Bio-One High Binding ELISA plates, target proteins were diluted to 1 μg/ml in carbonate buffer and added at 100 μl per well, at 4° C., o/n. Coated plates were washed 3× with PBS pH7.4, blocked with 1% BSA in PBS (380 μl/well) for 1 hr at RT, then washed 3× with PBS-non-ionic surfactant sold under the trademark Tween® 20 (PBST). CD47 antibodies (100 μl/well; diluted in PBST) were then added and then incubated 1 hr at RT. Plates were then washed 3× with PBST and goat anti-human kappa chain-HRP added (100 μl/well) at RT, for 1 hr. Plates were then washed 3× with PBST and twice with PBS before the addition of 100 μl TMB per well. Reactions were stopped by adding 100 μl 2M H₂SO₄/well and OD was read on a plate reader at 450 nm.

human CD47-Fc [2] = biological target: T3, human CD47-Fc (human, UniProt Q08722 19-139); experiment: direct ELISA, coated human CD47-Fc, OD450
T3 construct: also called hCD47; human CD47-Fc protein; not shown: Fc part

human CD47-Fc [3] = biological target: T3, human CD47-Fc; experiment: HTRF epitope competition; competitor Tb-labelled h5F9G4 IgG1 on biotinylated human CD47-Fc
Target sequence in this assay (Q08722 19-139 limits assumed): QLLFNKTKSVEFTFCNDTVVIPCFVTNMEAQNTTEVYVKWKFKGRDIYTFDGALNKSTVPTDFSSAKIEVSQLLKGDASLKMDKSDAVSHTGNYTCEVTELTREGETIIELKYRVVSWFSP

[4] = biological target: T2, cynomolgus monkey CD47 on cyno …; experiment: flow cytometry, CHO-K1 cells transfected with cyno CD47, MFI
Method: IgGs were tested at concentrations ranging from 24-100,000 ng/ml.
Antibodies shown to retain binding to CD47 by ELISA were analysed for concentration-dependent binding at the cell surface via flow cytometry. CHO-K1 cells were stably transfected with either human or cyno CD47 full-length cDNAs.

human CD47-Fc [5] = biological target: T3, human CD47-Fc; experiment: direct ELISA, coated human CD47-Fc, OD450; remark: listed apart in the source
Target sequence in this assay (Q08722 19-139 limits assumed): as above
Method: as §1

Binder	binding result [1]	binding result (human CD47-Fc [2])	IC50 (human CD47-Fc [3])	further results
VH1.7/VL1.4, human IgG1null (antibody, V domains shown, VH assembled as for m35; IgG1null) VH: QVQLVQSGAEVKKPGASVKVSCKASGYTFTNYNIHWVRQAPGQRLEWMGTIYPGNDDTSYSQKFQGRVTITADTSASTAYMELSSLRSEDTAVYYCARGGFRAMDYWGQGTLVTVSS VL: DIVMTQSPLSLPVTPGEPASISCRSSQSLLHSNAYNYLGWYLQKPGQSPQLLIYKGSNRFSGVPDRFSGSGSGTDFTLKISRVEAEDVGVYYCFQASQVPYTFGQGTKLEIK			22.6 µg/mL	
VH1.7/VL1.5, human IgG1null (antibody, V domains shown, VH assembled as for m35; IgG1null; also called Clone VH1.7/VL1.5) VH: QVQLVQSGAEVKKPGASVKVSCKASGYTFTNYNIHWVRQAPGQRLEWMGTIYPGNDDTSYSQKFQGRVTITADTSASTAYMELSSLRSEDTAVYYCARGGFRAMDYWGQGTLVTVSS VL: DIVMTQSPLSLPVTPGEPASISCRSSQSLLHSNAYNYLGWYLQKPGQSPQLLIYKGSNRFSGVPDRFSGSGSGTDFTLKISRVEAEDVGVYYCFQASHVPYTFGQGTKLEIK			9.53 µg/mL	
VH1.12/VL1.8, human IgG1null (antibody, V domains shown, IgG1null; also called VH1.12/VL8) VH: QVQLVQSGAEVKKPGASVKVSCKASGYTFTNYAMHWVRQAPGQRLEWMGTIYPGNDNTKYNQKFQGRVTITADTSASTAYMELSSLRSEDTAVYYCARGGFRAMDYWGQGTLVTVSS VL: DIVMTQSPLSLPVTPGEPASISCRSSQSLLHSNAYNYLGWYLQKPGQSPQLLIYKGSNRFSGVPDRFSGSGSGTDFTLKISRVEAEDVGVYYCMQASHVPYTFGQGTKLEIK			16.3 µg/mL	
VH1.8/VL1.2, human IgG1null (antibody, V domains shown, IgG1null; also called Clone VH1.8/VL1.2) VH: QVQLVQSGAEVKKPGASVKVSCKASGYTFTNYAMHWVRQAPGQRLEWMGTIYPGNDDTKYNQKFQGRVTITADTSASTAYMELSSLRSEDTAVYYCARGGFRAMDYWGQGTLVTVSS VL: DIVMTQSPLSLPVTPGEPASISCRSSQSLLHSNGNTYLGWYLQKPGQSPQLLIYKGSNRFSGVPDRFSGSGSGTDFTLKISRVEAEDVGVYYCFQASQVPYTFGQGTKLEIK			0.586 µg/mL	binding result [4]: binds; EC50 (read off the curve) (human CD47-Fc [5]): ~0.06 µg/mL
VH1.1/VL1.6, human IgG1null (antibody, V domains shown, cf. claim 50); IgG1null; also called Clone VH1.1/VL1.6) VH: QVQLVQSGAEVKKPGASVKVSCKASGYTFTNYAMHWVRQAPGQRLEWMGTIYPGNDDTKYNQKFQGRVTITADTSASTAYMELSSLRSEDTAVYYCARGGYRAEDYWGQGTLVTVSS VL: DIVMTQSPLSLPVTPGEPASISCRSSQSLLHSNANTYLGWYLQKPGQSPQLLIYKGSNRFSGVPDRFSGSGSGTDFTLKISRVEAEDVGVYYCFQASHVPYTFGQGTKLEIK			6.96 µg/mL	
E-D6, human IgG1null (antibody, V domains shown, IgG1null; also called Clone E-D6) VH: EVQLVQSGAEVKKPGESLKISCKGSGYSFTNYNIHWVRQMPGKGLEWMGTIYPGDSDTSYNPKFQGQVTISADKSISTAYLQWSSLKASDTAMYYCARGGYRAEDYWGQGTLVTVSS VL: DIVMTQSPLSLPVTPGEPASISCRSSQSLLHSNGNTYLGWYLQKPGQSPQLLIYKGSNRFSGVPDRFSGSGSGTDFTLKISRVEAEDVGVYYCMQGSHVPYTFGQGTKLEIK	binds	binds		
D-C12, human IgG1null (antibody, V domains shown, IgG1null; also called Clone D-C12) VH: EVQLVQSGAEVKKPGESLKISCKGSGYSFTNYNIHWVRQMPGKGLEWMGTIYPGNSDTRYNPKFQGQVTISADKSISTAYLQWSSLKASDTAMYYCARGGFRAMDYWGQGTLVTVSS VL: DIVMTQSPLSLPVTPGEPASISCRSSQSLLHSNGNTYLGWYLQKPGQSPQLLIYKGSNRFSGVPDRFSGSGSGTDFTLKISRVEAEDVGVYYCMQGSHVPYTFGQGTKLEIK	binds	binds		
C-D5, human IgG1null (antibody, V domains shown, IgG1null; also called Clone C-D5) VH: EVQLVQSGAEVKKPGESLKISCKGSGYSFTNYNIHWVRQMPGKGLEWMGTIYPGDSDTRYNPKFQGQVTISADKSISTAYLQWSSLKASDTAMYYCARGGIRAMDYWGQGTLVTVSS VL: DIVMTQSPLSLPVTPGEPASISCRSSQSLLHSNYNTYLGWYLQKPGQSPQLLIYKGSNRFSGVPDRFSGSGSGTDFTLKISRVEAEDVGVYYCFQGSQTPYTFGQGTKLEIK	binds	binds		
E-C5, human IgG1null (antibody, V domains shown, IgG1null; also called Clone E-C5) VH: EVQLVQSGAEVKKPGESLKISCKGSGYSFTNYNIHWVRQMPGKGLEWMGTIYPGDSDTSYNPKFQGQVTISADKSISTAYLQWSSLKASDTAMYYCARGGYRAQDYWGQGTLVTVSS VL: DIVMTQSPLSLPVTPGEPASISCRSSQSLLHSNGNTYLGWYLQKPGQSPQLLIYKGSNRFSGVPDRFSGSGSGTDFTLKISRVEAEDVGVYYCMQASHVPYTFGQGTKLEIK	binds	binds		
B-A6, human IgG1null (antibody, V domains shown, IgG1null; also called Clone B-A6) VH: EVQLVQSGAEVKKPGESLKISCKGSGYSFTNYNIHWVRQMPGKGLEWMGTIYPGDSDTRYNQKFQGQVTISADKSISTAYLQWSSLKASDTAMYYCARGGIRAMDYWGQGTLVTVSS VL: DIVMTQSPLSLPVTPGEPASISCRSSQSLLHSNGNTYLGWYLQKPGQSPQLLIYKGSNRFSGVPDRFSGSGSGTDFTLKISRVEAEDVGVYYCFQGSHVPYIFGQGTKLEIK	binds	binds		

Now from value to binder, other results behind:

binding result [1]	binding result (human CD47-Fc [2])	IC50 (human CD47-Fc [3])	Binder	further results
binds	binds		A-H3, human IgG1null (antibody, V domains shown, IgG1null; also called Clone A-H3) VH: EVQLVQSGAEVKKPGESLKISCKGSGYSFTNYNIHWVRQMPGKGLEWMGTIYPGNSDTSYNPSFQGQVTISADKSISTAYLQWSSLKASDTAMYYCARGGVRAMDYWGQGTLVTVSS VL: DIVMTQSPLSLPVTPGEPASISCRSSQSLLHSKGNTYLGWYLQKPGQSPQLLIYKGSNRFSGVPDRFSGSGSGTDFTLKISRVEAEDVGVYYCMQASQVPYTFGQGTKLEIK	
		14 µg/mL	VH1.6/VL1.6, human IgG1null (antibody, V domains shown, VH assembled as for m35; IgG1null) VH: QVQLVQSGAEVKKPGASVKVSCKASGYTFTNYAMHWVRQAPGQRLEWMGTIYPGNDDTSYSQKFQGRVTITADTSASTAYMELSSLRSEDTAVYYCARGGYRAEDYWGQGTLVTVSS VL: DIVMTQSPLSLPVTPGEPASISCRSSQSLLHSNANTYLGWYLQKPGQSPQLLIYKGSNRFSGVPDRFSGSGSGTDFTLKISRVEAEDVGVYYCFQASHVPYTFGQGTKLEIK	
binds	binds		F-G3, human IgG1null (antibody, V domains shown, IgG1null; also called clone F-G3) VH: EVQLVQSGAEVKKPGESLKISCKGSGYSFTNYNIHWVRQMPGKGLEWMGTIYPGNSDTSYNHKFQGQVTISADKSISTAYLQWSSLKASDTAMYYCARGGNRAEDYWGQGTLVTVSS VL: DIVMTQSPLSLPVTPGEPASISCRSSQSLLHSNGNTYLGWYLQKPGQSPQLLIYKGSNRFSGVPDRFSGSGSGTDFTLKISRVEAEDVGVYYCMQASQVPYTFGQGTKLEIK	
binds	binds		B-D2, human IgG1null (antibody, V domains shown, IgG1null; also called Clone B-D2) VH: EVQLVQSGAEVKKPGESLKISCKGSGYSFTNYNIHWVRQMPGKGLEWMGTIYPGNSDTRYNPSFQGQVTISADKSISTAYLQWSSLKASDTAMYYCARGGERAMDYWGQGTLVTVSS VL: DIVMTQSPLSLPVTPGEPASISCRSSQSLLHSNGNTYLGWYLQKPGQSPQLLIYKGSNRFSGVPDRFSGSGSGTDFTLKISRVEAEDVGVYYCFQASQVPYTFGQGTKLEIK	
		11.1 µg/mL	VH1.9/VL1.6, human IgG1null (antibody, V domains shown, IgG1null) VH: QVQLVQSGAEVKKPGASVKVSCKASGYTFTNYAMHWVRQAPGQRLEWMGTIYPGNDDTKYSQKFQGRVTITADTSASTAYMELSSLRSEDTAVYYCARGGYRAEDYWGQGTLVTVSS VL: DIVMTQSPLSLPVTPGEPASISCRSSQSLLHSNANTYLGWYLQKPGQSPQLLIYKGSNRFSGVPDRFSGSGSGTDFTLKISRVEAEDVGVYYCFQASHVPYTFGQGTKLEIK	
		4.64 µg/mL	VH1.7/VL1.6, human IgG1null (antibody, V domains shown, VH assembled as for m35; IgG1null; also called Clone VH1.7/VL1.6) VH: QVQLVQSGAEVKKPGASVKVSCKASGYTFTNYNIHWVRQAPGQRLEWMGTIYPGNDDTSYSQKFQGRVTITADTSASTAYMELSSLRSEDTAVYYCARGGFRAMDYWGQGTLVTVSS VL: DIVMTQSPLSLPVTPGEPASISCRSSQSLLHSNANTYLGWYLQKPGQSPQLLIYKGSNRFSGVPDRFSGSGSGTDFTLKISRVEAEDVGVYYCFQASHVPYTFGQGTKLEIK	
		0.459 µg/mL	VH1.8/VL1.1, human IgG1null (antibody, V domains shown, IgG1null (L234A/L235A/G237A); also called Clone VH1.8/VL1.1) VH: QVQLVQSGAEVKKPGASVKVSCKASGYTFTNYAMHWVRQAPGQRLEWMGTIYPGNDDTKYNQKFQGRVTITADTSASTAYMELSSLRSEDTAVYYCARGGFRAMDYWGQGTLVTVSS VL: DIVMTQSPLSLPVTPGEPASISCRSSQSLLHSNGNTYLGWYLQKPGQSPQLLIYKGSNRFSGVPDRFSGSGSGTDFTLKISRVEAEDVGVYYCFQASHVPYTFGQGTKLEIK	binding result [4]: binds; EC50 (read off the curve) (human CD47-Fc [5]): ~0.06 µg/mL
